Test results published in PMC2648313, “Identification of Rhoptry Trafficking Determinants and Evidence for a Novel Sorting Mechanism in the Malaria Parasite Plasmodium falciparum” (PLoS Pathogens, 2009).
Numbering of substitutions follows the chain as printed.

T1: RAP1(22-152) mutant, aspartate 39, 43 and 44 to arginine (P. falciparum 3D7, UniProt Q9U429 22-152, aspartate 39 to arginine | aspartate 43 to arginine | aspartate 44 to arginine)
T1 construct: not shown: His6, C-terminal, kept
T1 sequence: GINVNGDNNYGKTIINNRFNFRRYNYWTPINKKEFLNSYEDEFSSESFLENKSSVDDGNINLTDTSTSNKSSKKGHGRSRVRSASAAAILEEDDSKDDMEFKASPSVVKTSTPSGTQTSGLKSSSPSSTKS

T2: RAP1(22-152) mutant, residues 40, 42 and 45 to glycine (P. falciparum 3D7, UniProt Q9U429 22-152, aromatic residue 40 to glycine | aromatic residue 42 to glycine | aromatic …)
T2 construct: not shown: His6, C-terminal, kept
T2 sequence: T1 sequence with R18D, F19G, F21G, R22D, R23D, Y24G

T3: RAP1(22-152), recombinant His6-tagged RAP1 protein representing amino acids 22-152 (P. falciparum 3D7, UniProt Q9U429 22-152)
T3 construct: contains the RAP1 rhoptry signal (22-55); Amplified from 3D7 genomic DNA, cloned NcoI/XhoI into pET28b upstream of the His6 tag; not shown: His6, C-terminal, kept
T3 sequence: T1 sequence with R18D, R22D, R23D

T4: RAP1(22-152) mutant, aspartate 39, 43 and 44 to alanine (P. falciparum 3D7, UniProt Q9U429 22-152, aspartate 39 to alanine | aspartate 43 to alanine | aspartate 44 to alanine)
T4 construct: not shown: His6, C-terminal, kept
T4 sequence: T1 sequence with R18A, R22A, R23A

B1: RAMAE, RAMA-GST fusion protein representing amino acids 759-840 (domain or fragment)
chain: DNKFVAHKKREKSISPHSYQKVSTKVQNKENMENKEKKQLINDEAAMTAEELVELENTEDVNTPTMVETEEIDFDENGNKSS
notes: rhoptry associated membrane antigen (RAMA), P. falciparum, amino acids 759-840; source: E. coli BL21 (DE3), purified (glutathione resin)
B2: RAMAE1, RAMA-GST fusion protein representing amino acids 759-798 (domain or fragment)
chain: DNKFVAHKKREKSISPHSYQKVSTKVQNKENMENKEKKQL
notes: rhoptry associated membrane antigen (RAMA), P. falciparum, amino acids 759-798; Amplified from P. falciparum cDNA and cloned into pGEX-4T-1; source: E. coli BL21 (DE3), purified (glutathione resin)

Columns and labels:
Experiment in all cases: pull-down; 100 ug His6-tagged RAP1 recombinant protein immobilised on TALON resin, incubated O/N at 4 C with purified GST-fusion proteins in pull-down buffer (50 mM Na2HPO4, 75 mM NaCl, 0.1% Triton X-100, 5 mM imidazole, pH 7.4); eluted with imidazole; Coomassie gel and immunoblot with anti-GST
Details in all cases: both partners purified
[1] = molecular target: T1, RAP1(22-152) mutant, aspartate 39, 43 …
[2] = molecular target: T2, RAP1(22-152) mutant, residues 40, 42 …
[3] = molecular target: T3, RAP1(22-152), recombinant His6-tagged …
[4] = molecular target: T4, RAP1(22-152) mutant, aspartate 39, 43 …

Row | Binder | binding result [1] | binding result [2] | binding result [3] | binding result [4]
1 | B1 | binds | binds | binds | binds
2 | B2 | – | – | binds | –
